Reference: publication PMC3038193

Target: ApoE2 (C112S, C158S, A102C), labeled with Alexa488 or Alexa546 at position 102
Test: FRET or BRET

Substance: ApoE2 (C112S, C158S, A102C), labeled with Alexa488 or Alexa546 at position 102 (natural protein)
- k−1 (dissociation, dimer to monomers): 0.00066 s⁻¹
- k−2 (dissociation, tetramer to dimers): 0.0036 s⁻¹
